{"source": "paper PMC4140278", "key": {"[1]": {"target": "arrestin-3 (β-arrestin-2) (UniProt P32121)", "test": "BRET, arrestin-3-Rluc / FLAG-FFA4-eYFP, 5 min", "details": "for percent of reference: reference: wild type"}, "[2]": {"target": "arrestin-3 (β-arrestin-2) (UniProt P32121)", "test": "kinetic BRET, arrestin-3-Rluc / FFA4-eYFP", "details": "reference: wild type; sites T347,S350,S357"}}, "data": [{"substance": "FFA4 (GPR120) (from UniProt Q5NUL3) S360A", "values": [{"measurement": "percent of reference", "setting": "[1]; sites S360", "value": 85, "unit": "%"}]}, {"substance": "FFA4 (GPR120) (from UniProt Q5NUL3) TSS/AAA", "values": [{"measurement": "other: t½ of association", "setting": "[2]", "value": "weaker; reference 46 ± 6"}, {"measurement": "percent of reference", "setting": "[1]; sites T347,S350,S357", "value": 77, "unit": "%"}]}, {"substance": "FFA4 (GPR120) (from UniProt Q5NUL3) TSS/AAA-DD/AA", "values": [{"measurement": "other: Emax, % of wild type", "setting": "[1]; reference: DD/AA, sites T347,S350,S357", "value": 40, "unit": "%"}]}, {"substance": "FFA4 (GPR120) (from UniProt Q5NUL3) TSSS/AAAA", "values": [{"measurement": "other: Emax, % of wild type", "setting": "[1]; reference: TSS/AAA, sites S360", "value": "weaker; reference 77 ± 2"}, {"measurement": "percent of reference", "setting": "[1]; sites T347,S350,S357,S360", "value": 38, "unit": "%"}]}, {"substance": "FFA4 (GPR120) (from UniProt Q5NUL3) TTSS/AAAA", "values": [{"measurement": "other: Emax, % of wild type", "setting": "[1]; reference: TSS/AAA, sites T349", "value": "same; reference 77 ± 2"}, {"measurement": "percent of reference", "setting": "[1]; sites T347,T349,S350,S357", "value": 84, "unit": "%"}]}, {"substance": "FFA4 (GPR120) (from UniProt Q5NUL3) TTSSS/AAAAA", "values": [{"measurement": "other: Emax, % of wild type", "setting": "[1]; reference: TSS/AAA, sites T349,S360", "value": "weaker; reference 77 ± 2"}, {"measurement": "other: Emax, % of wild type", "setting": "[1]; reference: TSSS/AAAA, sites T349", "value": "same; reference 38 ± 2"}, {"measurement": "other: Emax, % of wild type", "setting": "[1]; reference: TTSS/AAAA, sites S360", "value": "weaker; reference 84 ± 7"}, {"measurement": "percent of reference", "setting": "[1]; sites T347,T349,S350,S357,S360", "value": 42, "unit": "%"}]}, {"substance": "FFA4 (GPR120) (from UniProt Q5NUL3) TTSSS/AAAAA-DD/AA", "values": [{"measurement": "other: Emax, % of wild type", "setting": "[1]; reference: DD/AA, sites T347,T349,S350,S357,S360", "value": 21, "unit": "%"}]}, {"substance": "FFA4 (GPR120) (from UniProt Q5NUL3) TTSSS/AAAAA-EDD/AAA", "values": [{"measurement": "other: Emax, % of wild type", "setting": "[1]; reference: EDD/AAA, sites T347,T349,S350,S357,S360", "value": "weaker; reference 69 ± 7"}]}, {"substance": "FFA4 (GPR120) (from UniProt Q5NUL3) TUG-891 10 µM, 5 min", "values": [{"measurement": "other: milli-BRET units", "setting": "[1]; reference: vehicle, sites T347,T349,S350,S357,S360", "value": "stronger; reference 63 ± 6"}]}]}
